For assay [1], the target named is T1, serum purified human Complement Factor D (human, UniProt P00746 26-253).
T1 construct: Serum purified protein flowed over the captured antibodies; also called CFD; human CFD
The experiment in a line: SPR Biacore, antibody on protein A chip, single cycle kinetics, 25 C.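 Note: antibodies captured to roughly 70 RU on the protein A surface in HBS-EP+ running buffer, with kinetic constants derived by BIAevaluation fitting.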 In general terms: SPR reads the build-up and loss of mass on a sensor chip optically.
Procedure: (§1) Antibodies were diluted to 0.5 ug/ml in HBS-EP+ buffer and captured on a protein A chip for 25 seconds to reach approximately 70 resonance units. […] Binding kinetic information was obtained by the BIAevaluation software (GE).

Assay [2] has as its target T1, serum purified human Complement Factor D. The assay can be described thus: SPR Biacore, antibody on protein A chip, single cycle kinetics, 37 C.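 Note: antibodies captured on the protein A surface to roughly 70 RU in HBS-EP+ buffer, with rate and affinity constants fitted using BIAevaluation software.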
Procedure: as §1

Numbering of substitutions follows the chain as printed. Where “and” joins values, the source holds several entries; their conditions need not be identical. Equal values may be shown once.

Here are results for 25 molecules from patent publication US20180334496A1 (KODIAK SCIENCES, published 2018).

T1 sequence (P00746 26-253): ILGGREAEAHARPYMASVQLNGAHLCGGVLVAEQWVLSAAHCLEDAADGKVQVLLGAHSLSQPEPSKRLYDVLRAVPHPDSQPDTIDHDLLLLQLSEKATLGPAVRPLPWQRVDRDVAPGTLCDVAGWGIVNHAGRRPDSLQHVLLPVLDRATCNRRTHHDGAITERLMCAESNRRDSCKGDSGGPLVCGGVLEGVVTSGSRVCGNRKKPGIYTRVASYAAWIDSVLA

B1: 28H31S54V59D / 101V (antibody, V domains shown)
VH: EVQLVESGGGLVQPGGSLRLSCAASGYHFTSYYMNWVRQAPGKGLEWIGDINPVTGDTDYNADFKRRFTFSLDTSKSTAYLQMNSLRAEDTAVYYCTREGPSFAYWGQGTLVTVSS
VL: DIQLTQSPSSLSASVGDRVTITCRSSQTIVHSNGDTYLEWYQQKPGKAPNLLIYKVSNRFSGVPSRFSGSGSGTDFTLTISSLQPEDFATYYCFQGSHVPVTFGQGTKVEIK
notes: KCD119 TAF variant; full antibody captured on protein A
In assay [1], B1 displayed a Kd of 0.0251 nM, an off-rate constant (koff) of 0.000167 s⁻¹ and a kon of 6.65e+06 M⁻¹ s⁻¹. For the same molecule, in assay [2], the Kd amounted to 0.0257 nM, the koff was 0.000443 s⁻¹ and the kon was found to be 1.72e+07 M⁻¹ s⁻¹.

B2: 54V59D / 101V (antibody, V domains shown)
VH: B1 VH with H28T, S31D
VL: B1 VL
notes: as for B1
Turning to B2, in assay [1], the dissociation constant (Kd) came out at 0.0371 nM, the koff came out at 0.000258 s⁻¹ and the kon was 6.94e+06 M⁻¹ s⁻¹.

B3: 31S54I59D84T / 32W60W101V (antibody, V domains shown)
VH: B1 VH with H28T, V54I, N84T
VL: B1 VL with S32W, F60W
notes: as for B1
Turning to B3, in assay [1], binding was characterised by a dissociation constant (Kd) of 0.0157 nM, the off-rate (koff) was 6.01e-05 s⁻¹ and the kon turned out to be 3.83e+06 M⁻¹ s⁻¹. In assay [2], this molecule came in with a Kd of 0.0288 nM, a koff of 0.000224 s⁻¹ and a kon of 7.79e+06 M⁻¹ s⁻¹.

B4: 31S54I59D / 32W60W101V (antibody, V domains shown)
VH: B1 VH with H28T, V54I
VL: B1 VL with S32W, F60W
notes: as for B1
As for B4, in assay [1], the Kd is 0.0165 nM, the koff came out at 6.3e-05 s⁻¹ and the on-rate (kon) amounted to 3.83e+06 M⁻¹ s⁻¹. In assay [2], this molecule yielded a Kd of 0.0343 nM, a koff of 0.000225 s⁻¹ and an association rate constant (kon) of 6.55e+06 M⁻¹ s⁻¹.

B5: 28Q31S54V59D / 101V (antibody, V domains shown)
VH: B1 VH with H28Q
VL: B1 VL
notes: as for B1
In assay [1], B5 displayed a Kd of 0.023 nM, a dissociation rate constant (koff) of 0.000164 s⁻¹ and a kon of 7.15e+06 M⁻¹ s⁻¹. In assay [2], binding was put at a Kd of 0.0757 nM, the koff amounted to 0.00103 s⁻¹ and the kon came out at 1.35e+07 M⁻¹ s⁻¹.

B6: 31S54V59D / 32W60W101V (antibody, V domains shown)
VH: B1 VH with H28T
VL: B1 VL with S32W, F60W
notes: as for B1
In assay [1], B6 came in with an equilibrium dissociation constant (Kd) of 0.0158 nM, a koff of 8.84e-05 s⁻¹ and an on-rate (kon) of 5.58e+06 M⁻¹ s⁻¹. In assay [2], this molecule returned a Kd of 0.0227 nM, a koff of 0.000293 s⁻¹ and a kon of 1.29e+07 M⁻¹ s⁻¹.

B7: 31S34I54I59D / 32W60W101V (antibody, V domains shown)
VH: B1 VH with H28T, M34I, V54I
VL: B1 VL with S32W, F60W
notes: as for B1
In assay [1], B7 showed a Kd of 0.0172 nM, a koff of 5.69e-05 s⁻¹ and a kon of 3.31e+06 M⁻¹ s⁻¹. In assay [2], this molecule came in with a Kd of 0.0312 nM, a koff of 0.000208 s⁻¹ and a kon of 6.67e+06 M⁻¹ s⁻¹.

B8: 28V31S54V59D / 101V (antibody, V domains shown)
VH: B1 VH with H28V
VL: B1 VL
notes: as for B1
In assay [1], B8 registered a Kd of 0.00601 nM, a koff of 4.76e-05 s⁻¹ and a kon of 7.91e+06 M⁻¹ s⁻¹. In assay [2], this molecule came in with a Kd of 0.051 nM, a koff of 0.00085 s⁻¹ and an on-rate constant (kon) of 1.66e+07 M⁻¹ s⁻¹.

B9: 54I59D84T / 32W60W101V (antibody, V domains shown)
VH: B1 VH with H28T, S31D, V54I, N84T
VL: B1 VL with S32W, F60W
notes: as for B1
In assay [1], B9 yielded a Kd of 0.0169 nM, a koff of 8.43e-05 s⁻¹ and a kon of 4.99e+06 M⁻¹ s⁻¹. For the same molecule, in assay [2], the Kd was 0.0258 nM, the koff worked out at 0.000365 s⁻¹ and the kon is 1.41e+07 M⁻¹ s⁻¹.

B10: 34I54I59D / 32W60W101V (antibody, V domains shown)
VH: B1 VH with H28T, S31D, M34I, V54I
VL: B1 VL with S32W, F60W
notes: as for B1
In assay [1], B10 came in with a Kd of 0.0211 nM, a koff of 0.000136 s⁻¹ and a kon of 6.45e+06 M⁻¹ s⁻¹. In assay [2], the Kd is 0.0217 nM, the koff turned out to be 0.000279 s⁻¹ and the on-rate constant (kon) stood at 1.29e+07 M⁻¹ s⁻¹.

B11: 31S48V54V59D / 101V (antibody, V domains shown)
VH: B1 VH with H28T, I48V
VL: B1 VL
notes: as for B1
In assay [1], B11 showed a Kd of 0.0169 nM, a koff of 0.000101 s⁻¹ and a kon of 5.98e+06 M⁻¹ s⁻¹.

B12: 54I59D / 32W60W101V (antibody, V domains shown)
VH: B1 VH with H28T, S31D, V54I
VL: B1 VL with S32W, F60W
notes: as for B1
B12: in assay [1], the dissociation rate constant (koff) is 3.5e-05 s⁻¹ and 8.32e-05 s⁻¹ and 6.85e-05 s⁻¹; the kon is 7.57e+06 M⁻¹ s⁻¹ and 4.91e+06 M⁻¹ s⁻¹ and 5.83e+06 M⁻¹ s⁻¹. In addition, in assay [2], the Kd is 0.0131 nM and 0.00972 nM and 0.00501 nM; the kon was 1.5e+07 M⁻¹ s⁻¹ and 6.86e+06 M⁻¹ s⁻¹ and 1.17e+07 M⁻¹ s⁻¹.

B13: 31S54I59D84S / 32W60W101V (antibody, V domains shown)
VH: B1 VH with H28T, V54I, N84S
VL: B1 VL with S32W, F60W
notes: Label printed 31S54I59D845, read as 84S; full antibody captured on protein A; also called 31S54I59D845 / 32W60W101V
With B13, in assay [1], the Kd was 0.0203 nM, the koff was determined as 7.76e-05 s⁻¹ and the kon was 3.83e+06 M⁻¹ s⁻¹. In assay [2], this molecule had a Kd of 0.0235 nM, a koff of 0.000209 s⁻¹ and a kon of 8.9e+06 M⁻¹ s⁻¹.

B14: 54I59D / 32W54S101V (antibody, V domains shown)
VH: B1 VH with H28T, S31D, V54I
VL: B1 VL with S32W, Y54S
notes: Light label printed 32W545101V, read as 32W54S101V; also called 54I59D / 32W545101V
Consider B14, for which, in assay [1], the affinity, expressed as Kd, was 0.00948 nM; the koff came to 7.29e-05 s⁻¹; the kon is 7.69e+06 M⁻¹ s⁻¹. In assay [2], binding was characterised by a dissociation constant (Kd) of 0.011 nM, the koff amounted to 0.000155 s⁻¹ and the kon is 1.41e+07 M⁻¹ s⁻¹.

B15: 54I59D / 50I60W101V (antibody, V domains shown)
VH: B1 VH with H28T, S31D, V54I
VL: B1 VL with N50I, F60W
notes: as for B1
In the case of B15, in assay [1], the Kd is 0.0121 nM, the koff stood at 6.67e-05 s⁻¹ and the kon was 5.53e+06 M⁻¹ s⁻¹. In assay [2], this molecule came in with a Kd of 0.0318 nM, a koff of 0.000329 s⁻¹ and a kon of 1.04e+07 M⁻¹ s⁻¹.

B16: 31S54I59D / 50I60W101V (antibody, V domains shown)
VH: B1 VH with H28T, V54I
VL: B1 VL with N50I, F60W
notes: as for B1
In the case of B16, in assay [1], the Kd stood at 0.00774 nM, the koff stood at 3.98e-05 s⁻¹ and the kon amounted to 5.14e+06 M⁻¹ s⁻¹. In assay [2], this molecule displayed a Kd of 0.0276 nM, an off-rate (koff) of 0.000256 s⁻¹ and an association rate constant (kon) of 9.26e+06 M⁻¹ s⁻¹.

B17: 31S54V59D / 101V (antibody, V domains shown)
VH: B1 VH with H28T
VL: B1 VL
notes: as for B1
Consider B17, for which, in assay [1], the Kd was 0.0188 nM and 0.0176 nM; the koff is 0.000131 s⁻¹ and 0.000101 s⁻¹; the kon is 6.95e+06 M⁻¹ s⁻¹ and 5.71e+06 M⁻¹ s⁻¹. In addition, in assay [2], the dissociation constant Kd stood at 0.0411 nM, the koff was determined as 0.000373 s⁻¹ and the kon came out at 9.08e+06 M⁻¹ s⁻¹.

B18: 28I31S54V59D / 101V (antibody, V domains shown)
VH: B1 VH with H28I
VL: B1 VL
notes: as for B1
In assay [1], B18 had a dissociation constant Kd of 0.0177 nM, a dissociation rate constant (koff) of 0.000134 s⁻¹ and a kon of 7.59e+06 M⁻¹ s⁻¹. In assay [2], this molecule came in with a dissociation constant (Kd) of 0.0195 nM, a koff of 0.00039 s⁻¹ and an association rate constant (kon) of 2e+07 M⁻¹ s⁻¹.

B19: 54V59D / 32W60W101V (antibody, V domains shown)
VH: B1 VH with H28T, S31D
VL: B1 VL with S32W, F60W
notes: as for B1
B19: in assay [1], the affinity, expressed as Kd, was 0.00607 nM; the koff stood at 4.79e-05 s⁻¹; the kon turned out to be 7.88e+06 M⁻¹ s⁻¹.

B20: 31S54I59D / 54G101V (antibody, V domains shown)
VH: B1 VH with H28T, V54I
VL: B1 VL with Y54G
notes: as for B1
Regarding B20, in assay [1], the Kd was 0.00689 nM, the koff is 8.25e-05 s⁻¹ and the kon came out at 1.2e+07 M⁻¹ s⁻¹. Moreover, in assay [2], binding was put at a Kd of 0.00931 nM, the koff turned out to be 0.000222 s⁻¹ and the on-rate constant (kon) amounted to 2.38e+07 M⁻¹ s⁻¹.

B21: 28K31S54V59D / 101V (antibody, V domains shown)
VH: B1 VH with H28K
VL: B1 VL
notes: as for B1
Consider B21, for which, in assay [1], the Kd was 0.0224 nM, the dissociation rate constant (koff) worked out at 0.000163 s⁻¹ and the kon came to 7.3e+06 M⁻¹ s⁻¹.

B22: 54I59D / 32W33G60W101V (antibody, V domains shown)
VH: B1 VH with H28T, S31D, V54I
VL: B1 VL with S32W, N33G, F60W
notes: KCD119 TAF variant; same label printed in three rows
For the molecule B22, in assay [1], the Kd is 0.0514 nM and 0.0534 nM and 0.0778 nM; the koff is 0.0004 s⁻¹ and 0.000328 s⁻¹ and 0.000352 s⁻¹; the on-rate constant (kon) is 7.78e+06 M⁻¹ s⁻¹ and 6.14e+06 M⁻¹ s⁻¹ and 4.53e+06 M⁻¹ s⁻¹. In assay [2], the Kd is 0.105 nM and 0.0979 nM and 0.135 nM; the koff is 0.0012 s⁻¹ and 0.00148 s⁻¹ and 0.00117 s⁻¹; the kon is 1.14e+07 M⁻¹ s⁻¹ and 1.51e+07 M⁻¹ s⁻¹ and 8.69e+06 M⁻¹ s⁻¹.

B23: 48V54V59D / 32W60W101V (antibody, V domains shown)
VH: B1 VH with H28T, S31D, I48V
VL: B1 VL with S32W, F60W
notes: as for B1
With B23, in assay [1], binding was put at a Kd of 0.0159 nM, the koff is 9.5e-05 s⁻¹ and the kon stood at 5.96e+06 M⁻¹ s⁻¹. In assay [2], this molecule returned a Kd of 0.0212 nM, a koff of 0.000278 s⁻¹ and a kon of 1.31e+07 M⁻¹ s⁻¹.

B24: 54I59D / 32W54S60W101V (antibody, V domains shown)
VH: B1 VH with H28T, S31D, V54I
VL: B1 VL with S32W, Y54S, F60W
notes: Light label printed 32W54560W101V, read as 32W54S60W101V; also called 54I59D / 32W54560W101V
In assay [1], B24 gave a Kd of 0.00858 nM, a koff of 5.37e-05 s⁻¹ and an association rate constant (kon) of 6.25e+06 M⁻¹ s⁻¹. In assay [2], this molecule yielded a Kd of 0.0124 nM, a koff of 0.000136 s⁻¹ and a kon of 1.1e+07 M⁻¹ s⁻¹.

B25: 28S31S54V59D / 101V (antibody, V domains shown)
VH: B1 VH with H28S
VL: B1 VL
notes: as for B1
Turning to B25, in assay [1], binding was put at a Kd of 0.0217 nM, the dissociation rate constant (koff) was found to be 0.000166 s⁻¹ and the kon is 7.64e+06 M⁻¹ s⁻¹. Besides, in assay [2], the Kd was determined as 0.0727 nM, the koff is 0.000918 s⁻¹ and the association rate constant (kon) turned out to be 1.26e+07 M⁻¹ s⁻¹.

Usually Kd stands for the concentration at which binding is half-saturated. A higher Kd goes with a looser complex. The koff is the rate constant with which the complex falls apart. The low end stands for slow dissociation, the high end for fast dissociation. What is called kon is a measure of how fast the partners come together.
